# Laboratory results from US20250361320A1 (Bristol-Myers Squibb, published 2025).
# Substitutions are numbered along the chain they refer to.
# B1: MBP003 (hIgG1 progeny of MBN001) (antibody, V domains shown)
# VH: QVQLVESGGGVVQPGRSLRLSCAASGITFSSHGMHWVRQAPGKGLEWVTFISYDGSYKSYVDSVKGRFTISRDNSKNTLYLQMNSLRAEDTAVYYCATGLTGTGAFDIWGQGTMVTVSS
# VL: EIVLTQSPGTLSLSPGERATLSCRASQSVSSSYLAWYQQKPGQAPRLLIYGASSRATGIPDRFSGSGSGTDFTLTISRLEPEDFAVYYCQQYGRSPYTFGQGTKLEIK
# B2: MBP010 (hIgG1.3f progeny of MBN001) (antibody, V domains shown)
# VH: B1 VH with G55S
# VL: EIVLTQSPGTLSLSPGERATLSCRASQSVSSSYLAWYQQKPGQAPRLLIYGASSRATGIPDRFSGSGSGTDFTLTISRLEPEDFAVYYCQQNKRSPYTFGQGTKLEIK
# B3: MBP006 (hIgG1.3f progeny of MBN001) (antibody, V domains shown)
# VH: B1 VH with K58I, F106N
# VL: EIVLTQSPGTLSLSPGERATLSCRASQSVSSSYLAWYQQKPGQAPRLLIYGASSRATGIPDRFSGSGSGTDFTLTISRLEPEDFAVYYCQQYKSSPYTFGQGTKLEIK
# B4: MBP004 (hIgG1.3f progeny of MBN001) (antibody, V domains shown)
# VH: B1 VH
# VL: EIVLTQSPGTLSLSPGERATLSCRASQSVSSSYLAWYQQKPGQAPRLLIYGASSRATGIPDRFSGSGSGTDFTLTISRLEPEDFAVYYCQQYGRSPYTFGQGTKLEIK
# B5: MBP005 (hIgG1.3f progeny of MBN001) (antibody, V domains shown)
# VH: B1 VH with T28Y
# VL: not shown
# B6: MBP008 (hIgG1.3f progeny of MBN001) (antibody, V domains shown)
# VH: B1 VH with G104N, F106L
# VL: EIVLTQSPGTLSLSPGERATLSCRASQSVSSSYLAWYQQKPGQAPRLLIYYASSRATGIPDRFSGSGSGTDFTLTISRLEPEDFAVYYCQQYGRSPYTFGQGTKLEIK
# B7: MBP009 (hIgG1.3f progeny of MBN001) (antibody, V domains shown)
# VH: B1 VH with T28Y
# VL: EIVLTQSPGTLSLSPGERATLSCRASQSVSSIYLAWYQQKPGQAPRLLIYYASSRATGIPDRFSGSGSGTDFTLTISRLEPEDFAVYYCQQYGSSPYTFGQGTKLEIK
# B8: MBP007 (hIgG1.3f progeny of MBN001) (antibody, V domains shown)
# VH: B1 VH with T28Y, F106N
# VL: B2 VL with R94P
# B9: MBP002 (hIgG1 progeny of MBN001) (antibody, V domains shown)
# VH: B1 VH with G104N, F106L
# VL: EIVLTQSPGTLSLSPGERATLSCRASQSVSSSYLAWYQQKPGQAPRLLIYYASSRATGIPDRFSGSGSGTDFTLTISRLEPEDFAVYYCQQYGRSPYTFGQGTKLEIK
# B10: MBP011 (hIgG1.3f progeny of MBN001) (antibody, V domains shown)
# VH: B1 VH with Y57I
# VL: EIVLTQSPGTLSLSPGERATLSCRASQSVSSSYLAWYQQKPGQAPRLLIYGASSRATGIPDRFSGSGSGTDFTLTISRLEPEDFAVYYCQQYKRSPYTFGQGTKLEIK
# B11: anti-CEACAM5 mAb MBN001 (antibody, V domains shown)
# VH: B1 VH with S7T, A40S, T69A, A88P
# VL: not shown
# notes: also called MBN001 parent; bin 1 lead
# Target: T1, human CEACAM5 on cells (MKN45, BxPC-3, Ls174T, HCT116-huCEACAM5) (human, UniProt P06731 35-685)
# T1 sequence: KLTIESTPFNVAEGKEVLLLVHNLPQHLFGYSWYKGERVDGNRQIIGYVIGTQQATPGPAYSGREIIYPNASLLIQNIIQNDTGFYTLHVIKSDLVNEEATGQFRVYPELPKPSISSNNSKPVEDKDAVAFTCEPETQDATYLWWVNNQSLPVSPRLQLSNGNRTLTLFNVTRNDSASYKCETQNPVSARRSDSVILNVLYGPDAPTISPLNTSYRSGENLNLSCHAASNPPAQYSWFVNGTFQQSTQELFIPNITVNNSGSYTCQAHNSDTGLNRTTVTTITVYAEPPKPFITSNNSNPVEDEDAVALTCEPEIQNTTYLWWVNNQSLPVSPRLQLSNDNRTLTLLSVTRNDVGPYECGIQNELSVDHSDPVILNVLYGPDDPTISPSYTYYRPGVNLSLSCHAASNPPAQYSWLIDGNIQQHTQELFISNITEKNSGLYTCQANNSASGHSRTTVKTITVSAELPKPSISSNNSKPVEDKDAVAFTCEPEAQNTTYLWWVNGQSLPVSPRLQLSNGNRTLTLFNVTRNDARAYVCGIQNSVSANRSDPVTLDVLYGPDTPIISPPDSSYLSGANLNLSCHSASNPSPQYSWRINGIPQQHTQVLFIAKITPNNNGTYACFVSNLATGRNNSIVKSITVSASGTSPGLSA
# Experiment: cell-based or functional assay
Binder,"Ls174T 5-day cytotoxicity (AUC), antibody with cytotoxic payload","MKN45 5-day cytotoxicity (AUC), antibody with cytotoxic payload"
B1,18500,24400
B2,910,1360
B3,902,2440
B4,865,2380
B5,964,2350
B6,1140,2200
B7,1040,2200
B8,834,2070
B9,18900,24100
B10,939,1770

# Target: T2, cynomolgus CEACAM5 on cells (HCT116-cyCEACAM5) (cynomolgus (Macaca fascicularis))
# T2 construct: also called cynoCEACAM-5
# T2 chain: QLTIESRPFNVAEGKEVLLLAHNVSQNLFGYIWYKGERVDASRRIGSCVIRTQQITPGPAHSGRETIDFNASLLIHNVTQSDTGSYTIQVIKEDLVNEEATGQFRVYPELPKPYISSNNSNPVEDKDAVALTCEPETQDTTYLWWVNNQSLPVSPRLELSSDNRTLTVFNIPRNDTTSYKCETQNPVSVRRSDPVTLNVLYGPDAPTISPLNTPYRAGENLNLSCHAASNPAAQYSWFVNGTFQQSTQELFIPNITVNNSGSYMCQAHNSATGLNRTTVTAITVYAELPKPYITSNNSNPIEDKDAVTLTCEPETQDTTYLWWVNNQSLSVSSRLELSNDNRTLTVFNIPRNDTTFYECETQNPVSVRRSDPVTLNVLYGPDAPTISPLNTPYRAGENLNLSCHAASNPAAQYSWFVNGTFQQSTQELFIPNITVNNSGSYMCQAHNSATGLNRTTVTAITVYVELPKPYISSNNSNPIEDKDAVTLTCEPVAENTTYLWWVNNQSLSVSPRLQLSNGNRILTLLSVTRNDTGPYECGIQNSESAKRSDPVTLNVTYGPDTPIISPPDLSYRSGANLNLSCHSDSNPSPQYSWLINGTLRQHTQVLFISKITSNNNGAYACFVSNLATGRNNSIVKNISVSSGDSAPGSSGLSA
# Experiment: cell binding, HCT-116 cyCEACAM5 cells
row,Binder,EC50 [nM]
1,B11,82.2
